PMC7782499, “Progerinin, an optimized progerin-lamin A binding inhibitor, ameliorates premature senescence phenotypes of Hutchinson-Gilford progeria syndrome” (Communications Biology, 2021)
Numbering of substitutions follows the chain as printed. Names and notes keep the numbering of the source. Values joined by “and” are separate entries in the source; they are usually repeats but may differ in a detail not shown here. Equal entries are not always repeated.

Assays:
[1] = Plasma protein binding, human; format: in vitro ADME
Protocol: (§1) At pre-set time-points, blood concentration of JH4 was determined by LC-MS/MS analysis[22],[23]. Other chemicals were also tested using similar protocol. In vitro ADME studies (plasma protein binding, CYP inhibition, microsomal stability, plasma stability, and hERG inhibition) were performed by New Drug Development Center (Daegu, Korea) using standard protocols[24],[25].

[2] = Plasma protein binding, rat; format: in vitro ADME
Protocol: as §1

HEK293 cells [3] = assay: GFP-tagged protein and H3K9me3 expression in transfected HEK293 cells; format: cell-based; settings: for GFP relative expression (ratio), Ave: average (Fig S1F); for Relative H3K9me3 expression, Ave: average (Fig S1G); for GFP relative expression (ratio): single replicates (Fig S1F); for Relative H3K9me3 expression: single replicates (Fig S1G); for GFP positive cells in total cells, Ave / GFP positive cells in total cells: transfected cells; for GFP positive cells in total cells, Ave / GFP relative expression in Western Blot, Ave: average (Fig S1D); for GFP positive cells in total cells / GFP relative expression in Western Blot: single replicates (Fig S1D);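 on Relative H3K9me3 expression, Ave: Western blot band quantification of H3K9me3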;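 on Relative H3K9me3 expression: Western blot band quantification of H3K9me3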
Description: (§2) GFP tag conjugated EV (GFP-EV), lamin A (GFP-LA), lamin A-C661A (GFP-LA-C661A), progerin (GFP-PG), and progerin-C611A (GFP-PG-C611A) vectors were used. GFP-PG and GFP-LA expression vectors were kindly provided by Misteli T. (National Cancer Institute [NCI], Frederick, MD, USA). GFP-LA-C661A and GFP-PG-C611A expression vectors were created by a single point mutation in CaaX motif. The CSIM sequence of lamin A, or progerin was mutated to ASIM. jetPEI (Polyplus Transfection, NY, USA) was used for transfection of expression vectors. Vectors were mixed with 1.5 μl of jetPEI in 150 mM NaCl solution. The mixture was added to HEK293 cells. After 4 h of incubation, medium was replaced with a new medium supplemented with 10% FBS.
Protein was extracted from cells using a radioimmunoprecipitation assay (RIPA) buffer (50 mM Tris-Cl, pH 7.5, 150 mM NaCl, 1% NP-40, 0.1% SDS, and 10% sodium deoxycholate). Samples were separated by sodium dodecyl sulfate-polyacrylamide gel electrophoresis (SDS-PAGE) and transferred to polyvinylidene difluoride (PVDF) membranes. Blotted membranes were blocked with 3% skimmed milk in TBS-T buffer (20 mM Tris pH 7.6, 150 mM NaCl, and 0.05% Tween 20) for 1 h followed by incubation with specific primary antibodies. Horseradish peroxidase (HRP)-conjugated goat anti-mouse, goat anti-rabbit, and mouse anti-goat IgG antibodies (Pierce, Thermo Fisher Scientific, Inc., Rockford, IL, USA) were used as secondary antibodies. Peroxidase activity was detected by chemiluminescence using an ECL kit (Intron, Seoul, Korea) following the manufacturer’s instructions. Bands were quantified using Image J software (National Institute of Health, NIH).
(§3) Fig. S1. Generation of point mutation in CaaX motif of lamin A and progerin for blocking farnesylation.
(§4) A. Sequence of expression vector encoding LA-C661A was created by single point mutation in CaaX motif.
WT-LA with CSIM sequence was mutated to ASIM. B. Sequence of expression vector encoding progerin-C611A with a single point mutation in CaaX motif. Progerin with CSIM sequence was mutated to ASIM.
C. Transient transfection of HEK293 cells with LA-C661A or PG-C611A seems to be indistinguishable from that of authentic WT-LA, or progerin. D. Measurement of proteins (GFP-LA, GFP-LA-C661A, GFP-PG, and GFP-PG-C611A) expression by counting of GFP-positive cells and western blot analysis. The blue […]
fluorescence images were randomly selected and the number of GFP expressing cells were calculated. The […]
experiment; two-tailed Student’s t-test), N.S: not significant. Quantification of western blot by Ima ge J software (National Institute of Health, NIH). […]
Quantification of GFP -tagged expression vector encoding e mpty (EV), wild-type lamin A (WT-LA), lamin A-C661A (LA-C661A), progerin, or progerin- C611A. Blots of GFP expression were quantified using Image J software. (n = 3 independent experiment; two- tailed Student’s t -test), N.S: not significant. G.
Quantification of H3K9me3 expression. […]

HEK293 cells [4] = assay: Nuclear deformation in GFP-positive HEK293 cells transfected with lamin A / progerin vectors; format: cell-based; settings: for % of deformed nuclei in GFP positive cells, Ave: average (Fig S1E); for % of deformed nuclei in GFP positive cells: single replicates (Fig S1E)
Description: as §2
For nuclear deformation cell counting, immunofluorescence staining was performed with lamin A or progerin antibodies. After staining, abnormal nuclear membrane was counted in randomly selected fields and expressed as percentages or actual numbers of total cells counted. Abnormalities of nuclear membrane were determined based on the following: (1) lamin A/C or progerin lining was extruded or engulfed, (2) having at least one bleb, and (3) irregular contour. Counting of cells with nuclear deformation was performed by three independent observers who were blinded to chemical treatment group. To analyze histone H3K9me3 intensity or expression, images were quantified using “color histogram” function of Image J software (National Institute of Health, NIH). Fluorescence intensities were subtracted by background signals.
as §3, §4
WT-LA with CSIM sequence was mutated to ASIM. B. Sequence of expression vector encoding progerin-
C611A with a single point mutation in CaaX motif. Progerin with CSIM sequence was mutated to ASIM. […]
D. Measurement of proteins (GFP-LA, GFP-LA-C661A, GFP- […]
Quantification of western blot by Ima ge J
software (National Institute of Health, NIH). E. Quantification of nuclear deformation in GFP positive
HEK293 cells. At least 100 cells/sample/experiment were counted by two independent researchers. The
statistical significance was analyzed by Student’s t -test. **p < 0.001, *p < 0.05, N.S: not significant. F. […]

Molecule: C[C@@H]1C[C@H]2[C@@H]3CCC4=CC(=O)C=C[C@]4(C)[C@@]3(F)[C@@H](O)C[C@]2(C)[C@@]1(O)C(=O)CO [Dexamethasone]
- Plasma protein binding [1]: 62.1 % Bound
- fraction unbound ([1]; human, plasma): 0.345
- fraction unbound [2]: 0.156

B1: PG-C611A (protein)
chain: METPSQRRATRSGAQASSTPLSPTRITRLQEKEDLQELNDRLAVYIDRVRSLETENAGLRLRITESEEVVSREVSGIKAAYEAELGDARKTLDSVAKERARLQLELSKVREEFKELKARNTKKEGDLIAAQARLKDLEALLNSKEAALSTALSEKRTLEGELHDLRGQVAKLEAALGEAKKQLQDEMLRRVDAENRLQTMKEELDFQKNIYSEELRETKRRHETRLVEIDNGKQREFESRLADALQELRAQHEDQVEQYKKELEKTYSAKLDNARQSAERNSNLVGAAHEELQQSRIRIDSLSAQLSQLQKQLAAKEAKLRDLEDSLARERDTSRRLLAEKEREMAEMRARMQQQLDEYQELLDIKLALDMEIHAYRKLLEGEEERLRLSPSPTSQRSRGRASSHSSQTQGGGSVTKKRKLESTESRSSFSQHARTSGRVAVEEVDEEGKFVRLRNKSNEDQSMGNWQIKRQNGDDPLLTYRFPPKFTLKAGQVVTIWAAGAGATHSPPTDLVWKAQNTWGCGNSLRTALINSTGEEVAMRKLVRSVTVVEDDEDEDGDDLLHHHHGSHCSSSGDPAEYNLRSRTVLCGTCGQPADKASASGSGAQSPQNASIM
modifications: left off: GFP, end not stated, kept
- GFP relative expression (ratio), Ave (HEK293 cells [3]): 0.82
- Relative H3K9me3 expression, Ave (HEK293 cells [3]): 2.153
- GFP relative expression (ratio) (HEK293 cells [3]): 0.9957 and 0.6855 and 0.7789
- Relative H3K9me3 expression (HEK293 cells [3]): 2.22 and 2.38 and 1.86
- GFP positive cells in total cells, Ave (HEK293 cells [3]): 0.7166
- GFP positive cells in total cells (HEK293 cells [3]): 0.624 (2×) and 0.546 and 0.585 and 0.819 and 0.897 and 0.78 and 0.858
- % of deformed nuclei in GFP positive cells, Ave (HEK293 cells [4]): 97.7143%
- % of deformed nuclei in GFP positive cells (HEK293 cells [4]): 95% and 100% and 96% and 98%

B2: WT-LA (protein)
chain: METPSQRRATRSGAQASSTPLSPTRITRLQEKEDLQELNDRLAVYIDRVRSLETENAGLRLRITESEEVVSREVSGIKAAYEAELGDARKTLDSVAKERARLQLELSKVREEFKELKARNTKKEGDLIAAQARLKDLEALLNSKEAALSTALSEKRTLEGELHDLRGQVAKLEAALGEAKKQLQDEMLRRVDAENRLQTMKEELDFQKNIYSEELRETKRRHETRLVEIDNGKQREFESRLADALQELRAQHEDQVEQYKKELEKTYSAKLDNARQSAERNSNLVGAAHEELQQSRIRIDSLSAQLSQLQKQLAAKEAKLRDLEDSLARERDTSRRLLAEKEREMAEMRARMQQQLDEYQELLDIKLALDMEIHAYRKLLEGEEERLRLSPSPTSQRSRGRASSHSSQTQGGGSVTKKRKLESTESRSSFSQHARTSGRVAVEEVDEEGKFVRLRNKSNEDQSMGNWQIKRQNGDDPLLTYRFPPKFTLKAGQVVTIWAAGAGATHSPPTDLVWKAQNTWGCGNSLRTALINSTGEEVAMRKLVRSVTVVEDDEDEDGDDLLHHHHGSHCSSSGDPAEYNLRSRTVLCGTCGQPADKASASGSGAQVGGPISSGSSASSVTVTRSYRSVGGSGGGSFGDNLVTRSY
modifications: left off: GFP, end not stated, state not stated
- % of deformed nuclei in GFP positive cells, Ave (HEK293 cells [4]): 7%
- % of deformed nuclei in GFP positive cells (HEK293 cells [4]): 6% and 8% and 4% and 9% and 12%

B3: LA (protein, UniProt P02545 1-661, looked up)
Prelamin-A/C: METPSQRRATRSGAQASSTPLSPTRITRLQEKEDLQELNDRLAVYIDRVRSLETENAGLRLRITESEEVVSREVSGIKAAYEAELGDARKTLDSVAKERARLQLELSKVREEFKELKARNTKKEGDLIAAQARLKDLEALLNSKEAALSTALSEKRTLEGELHDLRGQVAKLEAALGEAKKQLQDEMLRRVDAENRLQTMKEELDFQKNIYSEELRETKRRHETRLVEIDNGKQREFESRLADALQELRAQHEDQVEQYKKELEKTYSAKLDNARQSAERNSNLVGAAHEELQQSRIRIDSLSAQLSQLQKQLAAKEAKLRDLEDSLARERDTSRRLLAEKEREMAEMRARMQQQLDEYQELLDIKLALDMEIHAYRKLLEGEEERLRLSPSPTSQRSRGRASSHSSQTQGGGSVTKKRKLESTESRSSFSQHARTSGRVAVEEVDEEGKFVRLRNKSNEDQSMGNWQIKRQNGDDPLLTYRFPPKFTLKAGQVVTIWAAGAGATHSPPTDLVWKAQNTWGCGNSLRTALINSTGEEVAMRKLVRSVTVVEDDEDEDGDDLLHHHHGSHCSSSGDPAEYNLRSRTVLCGTCGQPADKASASGSGAQVGGPISSGSSASSVTVTRSYRSVGGSGGGSFGDNLVTRSYLLGNSSPRTQSPQNC
- GFP relative expression in Western Blot, Ave (HEK293 cells [3]): 1.171
- GFP relative expression (ratio), Ave (HEK293 cells [3]): 0.7757
- Relative H3K9me3 expression, Ave (HEK293 cells [3]): 4.873
- GFP relative expression in Western Blot (HEK293 cells [3]): 1.2 and 1.286 and 1.029
- GFP relative expression (ratio) (HEK293 cells [3]): 0.8616 and 0.6545 and 0.811
- Relative H3K9me3 expression (HEK293 cells [3]): 5.1 and 4.62 and 4.9
- GFP positive cells in total cells, Ave (HEK293 cells [3]): 0.7312
- GFP positive cells in total cells (HEK293 cells [3]): 0.897 and 0.585 and 0.741 (2×) and 0.546 and 0.819 (2×) and 0.702

B4: LA-C661A (protein, UniProt P02545 1-661, looked up, variant C661A)
Prelamin-A/C: B3 Prelamin-A/C with C661A
- GFP relative expression in Western Blot, Ave (HEK293 cells [3]): 1.219
- GFP relative expression (ratio), Ave (HEK293 cells [3]): 0.7753
- Relative H3K9me3 expression, Ave (HEK293 cells [3]): 4.563
- GFP relative expression in Western Blot (HEK293 cells [3]): 1.3 and 1.171 and 1.186
- GFP relative expression (ratio) (HEK293 cells [3]): 0.9644 and 0.614 and 0.7475
- Relative H3K9me3 expression (HEK293 cells [3]): 5.03 and 4.5 and 4.16
- GFP positive cells in total cells, Ave (HEK293 cells [3]): 0.7264
- GFP positive cells in total cells (HEK293 cells [3]): 0.819 and 0.936 and 0.741 (2×) and 0.546 and 0.585 and 0.78 and 0.663
- % of deformed nuclei in GFP positive cells, Ave (HEK293 cells [4]): 7.286%
- % of deformed nuclei in GFP positive cells (HEK293 cells [4]): 8% and 6% and 10% and 5% and 9%
